This note sets out measurements from patent US20230203146A1 (Boehringer Ingelheim, published 2023).

Experiment [1] addresses T1, recombinant mouse Ang2-FLD (mouse, UniProt O35608 275-496, limits assumed).
T1 construct: domain: FLD
T1 sequence (looked up): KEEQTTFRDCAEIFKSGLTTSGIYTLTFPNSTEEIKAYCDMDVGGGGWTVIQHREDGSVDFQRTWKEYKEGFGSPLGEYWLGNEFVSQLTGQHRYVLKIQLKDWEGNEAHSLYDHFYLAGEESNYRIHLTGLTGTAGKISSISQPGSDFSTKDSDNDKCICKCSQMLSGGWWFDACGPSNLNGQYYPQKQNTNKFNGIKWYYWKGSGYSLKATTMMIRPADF
Kind of experiment: SPR (Biacore T100), binder on CM5 chip, Ang2-FLD as analyte. The method, then: (§1) In brief, VHH and benchmark compounds are immobilized on a CM5 chip via amine coupling. […] Ang2-FLD species are allowed to associate for 2 min and to dissociate for 20 min at a flow rate of 45 μL/min. In between injections, the surfaces are regenerated with a 10 sec pulse of 25 mM NaOH and 60 sec stabilization period. Association/dissociation data are evaluated by fitting a 1:1 interaction model (Langmuir binding). The affinity constant KD is calculated from resulting association and dissociation rate constants kₐ and kd and are depicted in Table 8.
On the technique in general: SPR reads the build-up and loss of mass on a sensor chip optically.

Experiment [2] addresses T2, recombinant cynomolgus Ang2-FLD (cynomolgus).
T2 construct: domain: FLD; also called cyno Ang2-FLD
Described as above. As for the experimental part: as §1

The target in experiment [3] is T3, recombinant human Ang2-FLD (human, UniProt O15123 275-496, limits assumed).
T3 construct: domain: FLD; not used
T3 sequence (looked up): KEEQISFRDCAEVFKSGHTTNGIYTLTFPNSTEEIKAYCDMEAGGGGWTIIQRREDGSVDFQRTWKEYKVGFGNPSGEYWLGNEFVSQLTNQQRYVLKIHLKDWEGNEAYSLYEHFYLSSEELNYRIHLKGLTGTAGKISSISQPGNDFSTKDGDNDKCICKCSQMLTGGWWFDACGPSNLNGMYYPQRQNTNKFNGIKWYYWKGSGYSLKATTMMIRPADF
Described as above. As for the experimental part: as §1

The target in experiment [4] is T4, N-terminally FLAG-tagged mouse Ang2 (HEK293T conditioned medium) (mouse, UniProt O35608 19-496).
T4 construct: may be a nucleotide entry; also called mAng2; FLAG-mAng2
T4 sequence: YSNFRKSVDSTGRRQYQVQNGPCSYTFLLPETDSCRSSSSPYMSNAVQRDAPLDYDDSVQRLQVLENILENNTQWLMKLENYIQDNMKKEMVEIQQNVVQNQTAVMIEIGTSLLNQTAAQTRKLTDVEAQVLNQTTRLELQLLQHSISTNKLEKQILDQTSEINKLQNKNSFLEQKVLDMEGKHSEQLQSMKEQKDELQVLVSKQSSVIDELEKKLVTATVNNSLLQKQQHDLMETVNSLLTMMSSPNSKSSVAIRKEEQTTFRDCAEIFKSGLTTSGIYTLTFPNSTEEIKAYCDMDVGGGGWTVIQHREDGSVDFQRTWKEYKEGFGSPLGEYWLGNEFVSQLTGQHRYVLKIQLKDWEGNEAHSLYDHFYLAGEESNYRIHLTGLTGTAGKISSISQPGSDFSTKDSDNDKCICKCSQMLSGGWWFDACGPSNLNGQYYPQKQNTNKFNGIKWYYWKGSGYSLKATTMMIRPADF
The experiment in a line: competition ELISA, FLAG-mAng2 on coated mTie2-Fc. The method, then:
(§2) In brief, 2 μg/mL of recombinant mouse Tie2-Fc or cyno Tie2-Fc is coated overnight at 4° C. in a 96-well MaxiSorp plate (Nunc, Wiesbaden, Germany). Coated wells are blocked with a 1% casein solution.
A general note: ELISA stands for enzyme-linked immunosorbent assay.

Experiment [5] deals with T5, N-terminally FLAG-tagged cynomolgus Ang2 (HEK293T conditioned medium) (cynomolgus, UniProt O15123 19-496 (human entry), limits assumed).
T5 construct: may be a nucleotide entry; also called cAng2; FLAG-cAng2
T5 chain: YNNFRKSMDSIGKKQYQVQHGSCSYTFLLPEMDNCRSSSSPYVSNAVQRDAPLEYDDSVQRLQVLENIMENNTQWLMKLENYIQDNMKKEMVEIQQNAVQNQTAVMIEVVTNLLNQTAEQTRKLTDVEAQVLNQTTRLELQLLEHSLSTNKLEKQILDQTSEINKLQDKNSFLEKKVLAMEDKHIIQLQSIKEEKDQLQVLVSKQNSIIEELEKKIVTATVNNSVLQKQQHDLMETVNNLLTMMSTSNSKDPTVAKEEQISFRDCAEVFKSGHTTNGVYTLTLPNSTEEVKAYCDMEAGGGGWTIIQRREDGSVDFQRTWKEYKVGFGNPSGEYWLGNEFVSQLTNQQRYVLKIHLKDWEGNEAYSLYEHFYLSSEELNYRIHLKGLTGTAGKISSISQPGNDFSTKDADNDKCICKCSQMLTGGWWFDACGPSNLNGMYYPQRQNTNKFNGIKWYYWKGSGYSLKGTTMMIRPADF
The experiment in a line: competition ELISA, FLAG-cAng2 on coated cTie2-Fc. As for the experimental part: as §2

In experiment [6] the target is T6, FLAG-tagged recombinant human Ang1 (Alexis Biochemicals) (human, UniProt Q15389 20-498, limits assumed).
T6 construct: Bought reagent; also called hAng1; FLAG-hAng1
T6 sequence (looked up): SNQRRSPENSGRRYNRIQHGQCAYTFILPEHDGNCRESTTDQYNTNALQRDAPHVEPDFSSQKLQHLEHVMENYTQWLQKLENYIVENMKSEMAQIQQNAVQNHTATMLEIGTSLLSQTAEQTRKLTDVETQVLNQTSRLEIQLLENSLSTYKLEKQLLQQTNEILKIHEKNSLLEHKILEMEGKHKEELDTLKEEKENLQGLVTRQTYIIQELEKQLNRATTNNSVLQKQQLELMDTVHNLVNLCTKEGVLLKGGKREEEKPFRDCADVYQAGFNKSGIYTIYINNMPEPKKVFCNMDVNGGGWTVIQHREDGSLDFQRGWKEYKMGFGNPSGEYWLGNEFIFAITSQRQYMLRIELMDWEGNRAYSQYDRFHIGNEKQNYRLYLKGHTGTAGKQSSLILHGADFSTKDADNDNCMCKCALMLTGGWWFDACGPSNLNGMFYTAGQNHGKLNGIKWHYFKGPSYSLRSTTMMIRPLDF
The experiment in a line: ratio of IC50 in hAng1/hTie2 ELISA to IC50 in hAng2/hTie2 ELISA. As for the experimental part: In brief, 2 μg/mL of Tie2/Fc chimera (R&D Systems, Minneapolis, Minn., USA) is coated in a 96-well MaxiSorp plate (Nunc, Wiesbaden, Germany).
In brief, 2 μg/mL of recombinant human Tie2-Fc (R&D Systems, Minneapolis, Minn., USA) is coated overnight at 4° C. in a 96-well MaxiSorp plate (Nunc, Wiesbaden, Germany). Coated wells are blocked with a 1% casein solution.

For experiment [7], the target named is T4, N-terminally FLAG-tagged mouse Ang2 …. The experiment in a line: competition ELISA, FLAG-mAng2 on coated mTie2-Fc. The method, then: as §2
The source holds these as a separate data set.

In experiment [8] the target is T7, FLAG-tagged cynomolgus Ang2 (cynomolgus, UniProt O15123 19-496 (human entry), limits assumed).
T7 construct: N-terminally FLAG-tagged, conditioned medium of HEK293T cells; also called cAng2; FLAG-cAng2
T7 chain: T5 chain
Kind of experiment: competition ELISA: FLAG-cAng2 binding to coated cTie2-Fc. The method, then:
as §2

Experiment [9] concerns the target T8, FLAG-tagged mouse Ang2 (mouse, UniProt O35608 19-496).
T8 construct: N-terminally FLAG-tagged, conditioned medium of HEK293T cells; also called mAng2; FLAG-mAng2
T8 sequence: T4 sequence
The experiment in a line: competition ELISA: FLAG-mAng2 binding to coated mTie2-Fc. The method, then:
as §2

For experiment [10], the target named is T9, recombinant human Ang2-FLD (human, UniProt O15123 275-496, limits assumed).
T9 construct: domain: FLD
T9 sequence (looked up): T3 sequence (looked up)
Kind of experiment: SPR (Biacore T100), VHH immobilized, Ang2-FLD injected. The method, then:
as §1

A further experiment deals with T10, recombinant rat Ang2-FLD (rat, UniProt O35462 275-496, limits assumed).
T10 construct: domain: FLD
T10 sequence (looked up): T1 sequence (looked up) with Q4K, I35V, V43M, G91S, Q92G, N107S, D114E, A119S, S168T
The experiment is described as above. The method, then:
as §1

Experiment [11] has as its target T11, recombinant cynomolgus Ang2-FLD (cynomolgus, UniProt A0A2K5VNX6 275-496).
T11 construct: domain: FLD; also called cyno Ang2-FLD
T11 sequence: T3 sequence (looked up) with E2G, I23V, F28L, I35V, G154A, A212G, D221G
Described as above. As for the experimental part:
as §1

Experiment [12] has as its target T12, recombinant mouse Ang2-FLD (mouse, UniProt O35608 275-496, limits assumed).
T12 construct: domain: FLD
T12 sequence (looked up): T1 sequence (looked up)
The experiment is described as above. As for the experimental part: as §1

The target of experiment [13] is T7, FLAG-tagged cynomolgus Ang2. The experiment in a line: competition ELISA: FLAG-cAng2 binding to coated cTie2-Fc. As for the experimental part: as §2
Experiment [14] deals with T8, FLAG-tagged mouse Ang2. Kind of experiment: competition ELISA: FLAG-mAng2 binding to coated mTie2-Fc. The method, then:
as §2
The source holds these as a separate data set.

Where a chain is given by its changes, count along the chain named. Where two headings read alike, the source gives them in different places.

B1: VHH 1D01 (VHH)
VHH: EVQLVESGGGLVQAGGSLRLSCAASGFTFDDYALGWFRQAAGKEREGVSCIRCSDGSTYYADSVKGRFTISSDNAKNTVYLQMNSLKPEDTAVYYCAASIVPRSKLEPYEYDAWGQGTQVTVSS
notes: also called 001D01; not shown: C-terminal c-myc tag and His6 tag
A word on the Kd: it is the constant that tells how readily two partners part at equilibrium. One may read the koff as a measure of how fast the partners let go of each other. Usually kon stands for a measure of how fast the partners come together. Usually IC50 stands for the concentration needed to halve the response being measured. On to B1, for which the dissociation constant (Kd) in [1] is 4600 pM; in experiment [2], 1400 pM; in experiment [3], 2000 pM. Also, the off-rate constant (koff) in experiment [1] worked out at 0.015 s⁻¹; in experiment [2], 0.014 s⁻¹; in experiment [3] it was 0.015 s⁻¹. The on-rate (kon) in experiment [1] stood at 3.3e+06 M⁻¹ s⁻¹; in experiment [2] it was 9.9e+06 M⁻¹ s⁻¹; in experiment [3], 7.7e+06 M⁻¹ s⁻¹. Moreover, the values for the IC50 in [4], in experiment [5] and in experiment [7] were 10000 pM, 16400 pM and 6300 pM, respectively. Further, in experiment [6], the hAng1/hAng2 ratio was > 10800.

B2: VHH 00921 (VHH, not shown: small tags and cut ends)
VHH: B1 VHH with A14P, A41P, D55G, A75S, K87R, Q119L
For B2, the half-maximal inhibitory concentration (IC50) amounted to 37000 pM in [8] and 27000 pM in the experiment with FLAG-tagged mouse Ang2 [9]. Further, the Kd in experiment [10] worked out at 6600 pM; in the experiment with recombinant rat Ang2-FLD, 42000 pM; in experiment [11], 2300 pM; in [12], 7500 pM. In addition, the off-rate (koff) in [10] turned out to be 0.027 s⁻¹; in the experiment with recombinant rat Ang2-FLD it was 0.049 s⁻¹; in experiment [11] it was 0.025 s⁻¹; in experiment [12] it was 0.025 s⁻¹. The kon in [10] is 4e+06 M⁻¹ s⁻¹; in the experiment with recombinant rat Ang2-FLD, 1.2e+06 M⁻¹ s⁻¹; in experiment [11], 1.1e+07 M⁻¹ s⁻¹; in experiment [12], 3.3e+06 M⁻¹ s⁻¹.

B3: VHH 7G08 (VHH)
VHH: EVQLVESGGGLVQPGGSLRLSCAASGFALDYYAIGWFRQVPGKEREGVSCISSSDGITYYVDSVKGRFTISRDNAKNTVYLQMNSLKPEDTAVYYCATDSGGYIDYDCMGLGYDYWGQGTQVTVSS
notes: also called 007G08; not shown: C-terminal c-myc tag and His6 tag
For B3, the Kd in [1] came out at 180 pM; in [2], 72 pM; in experiment [3], 97 pM. Further, the dissociation rate constant (koff) was determined as 0.00014 s⁻¹ in experiment [1], 0.00011 s⁻¹ in experiment [2] and 0.0001 s⁻¹ in experiment [3]. Besides, the on-rate (kon) amounted to 810000 M⁻¹ s⁻¹ in experiment [1], 1.5e+06 M⁻¹ s⁻¹ in experiment [2] and 1e+06 M⁻¹ s⁻¹ in experiment [3]. The 50% inhibitory concentration (IC50) in experiment [4] was 70 pM; in [5] it was 140 pM; in experiment [7], 90 pM. The hAng1/hAng2 ratio in [6] was > 2.33e+06.

B4: VHH 00928 (VHH, not shown: small tags and cut ends)
VHH: B3 VHH with V40A, D55G, V61A, A75S, K87R, M109S, Q121L
On to B4, for which the concentration for half-maximal inhibition (IC50) in experiment [13] came out at 390 pM; with FLAG-tagged mouse Ang2 [14] it was 200 pM. The dissociation constant Kd is 64 pM in [10], 290 pM with recombinant rat Ang2-FLD, 50 pM in [11] and 170 pM in experiment [12]. In addition, the off-rate (koff) in experiment [10] turned out to be 4e-05 s⁻¹; in the experiment with recombinant rat Ang2-FLD it was 5.4e-05 s⁻¹; in experiment [11], 4.9e-05 s⁻¹; in [12], 7.3e-05 s⁻¹. Also, the kon in experiment [10] was 620000 M⁻¹ s⁻¹; with recombinant rat Ang2-FLD, 180000 M⁻¹ s⁻¹; in experiment [11], 970000 M⁻¹ s⁻¹; in experiment [12], 420000 M⁻¹ s⁻¹.
